In patent US20200048648:

Experiments:
Assay in all cases: cell_activity
[1] = system: MsCOMT_T02.1 TALE nuclease right monomer (synthetic construct); conditions: value for nuclease pair; alfalfa protoplasts, 28 C, 2 days
[2] = system: MsCOMT_T01.1 TALE nuclease left monomer (synthetic construct); conditions: value for nuclease pair; alfalfa protoplasts, 28 C, 2 days; left site boundary inferred from 15 bp spacer
[3] = system: MsCOMT_T03.1 TALE nuclease left monomer (synthetic construct); conditions: value for nuclease pair; alfalfa protoplasts, 28 C, 2 days
[4] = system: MsCOMT_T02.1 TALE nuclease left monomer (synthetic construct); conditions: value for nuclease pair; alfalfa protoplasts, 28 C, 2 days
[5] = system: MsCOMT_T03.1 TALE nuclease right monomer (synthetic construct); conditions: value for nuclease pair; alfalfa protoplasts, 28 C, 2 days
[6] = system: MsCOMT_T01.1 TALE nuclease right monomer (synthetic construct); conditions: value for nuclease pair; alfalfa protoplasts, 28 C, 2 days

## CTGGACCTGGTGCTCAA (double strand) [MsCOMT_T02.1 right half-site (top strand)]
[1]
  activity (% mutation frequency): 15.9

## TTCAACAGGTGAAACTC (double strand) [MsCOMT_T01.1 left half-site]
[2]
  activity (% mutation frequency): 12.6

## TTGCTTCTCAGCTACCA (double strand) [MsCOMT_T03.1 left half-site]
[3]
  activity (% mutation frequency): 14.1

## TGAACTTGATCTCTTAG (double strand) [MsCOMT_T02.1 left half-site]
[4]
  activity (% mutation frequency): 15.9

## GCACCAGTTATGTTGGA (double strand) [MsCOMT_T03.1 right half-site (top strand)]
[5]
  activity (% mutation frequency): 14.1

## ACATATCAGATGAAGAA (double strand) [MsCOMT_T01.1 right half-site (top strand)]
[6]
  activity (% mutation frequency): 12.6
